The source of these data is US20130034493A1 (RESEARCH DEVELOPMENT FOUNDATION, published 2013).

The target of the test is T1, recombinant BMP4 (rBMP4) (mouse, UniProt P21275 293-408, limits assumed).
T1 sequence (looked up): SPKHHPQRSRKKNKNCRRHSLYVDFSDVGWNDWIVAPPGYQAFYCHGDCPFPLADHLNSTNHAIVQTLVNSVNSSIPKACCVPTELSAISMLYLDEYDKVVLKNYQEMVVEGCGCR
Nature of the test: cell-based or functional assay.

B1: mouse recombinant Olfml3-FLAG tagged protein (rOlfml3-FLAG) (other, not shown: small tags and cut ends)
chain: QQHHLVEYMERRLAALEERLAQCQDQSSRHAAELRDFKNKMLPLLEVAEKERETLRTEADSISGRVDRLEREVDYLETQNPALPCVELDEKVTGGPGAKGKGRRNEKYDMVTDCSYTVAQVRSMKILKRFGGSVGLWTKDPLGPAEKIYVLDGTQNDTAFVFPRLRDFTLAMAARKASRIRVPFPWVGTGQLVYGGFLYYARRPPGGPGGGGELENTLQLIKFHLANRTVVDSSVFPAESLIPPYGLTADTYIDLAADEEGLWAVYATRDDDRHLCLAKLDPQTLDTEQQWDTPCPRENAEAAFVICGTLYVVYNTRPASRARIQCSFDASGTLAPERAALSYFPRRYGAHASLRYNPRERQLYAWDDGYQIVYKLEMKKKEEEV
As for B1, the “ERK1/2 phosphorylation in HUVECs” value came out at 5 fold.
